B1: Glutamate dehydrogenase, P96110 (parent)
chain: MPEKSLYEMAVEQFNRAASLMDLESDLAEVLRRPKRVLIVEFPVRMDDGHVEVFTGYRVQHNVARGPAKGGIRYHPDVTLDEVKALAFWMTWKTAVMNLPFGGGKGGVRVDPKKLSRNELERLSRRFFSEIQVIIGPYNDIPAPDVNTNADVMAWYMDTYSMNVGHTVLGIVTGKPVELGGSKGREEATGRGVKVCAGLAMDVLGIDPKKATVAVQGFGNVGQFAALLISQELGSKVVAVSDSRGGIYNPEGFDVEELIRYKKEHGTVVTYPKGERITNEELLELDVDILVPAALEGAIHAGNAERIKAKAVVEGANGPTTPEADEILSRRGILVVPDILANAGGVTVSYFEWVQDLQSFFWDLDQVRNALEKMMKGAFNDVMKVKEKYNVDMRTAAYILAIDRVAYATKKRGIYP

Variants of: B1
Details: Thermotoga maritima (strain ATCC 43589 / DSM 3109 / JCM 10099 / NBRC 100826 / MSB8), pH 7, CD, sodium phosphate 20 mM, reversible: yes, structure 1B26, whole UniProt chain shown

Variant	ddG of mutation (higher = less stable) (20 °C, GdnHCl) [kcal/mol]	denaturant m value (20 °C, GdnHCl) [kcal/mol/M]	denaturant midpoint (higher = more stable) (20 °C, GdnHCl) [M]	unfolding free energy (20 °C, GdnHCl) [kcal/mol]	ddG of mutation (higher = less stable) (20 °C, Urea) [kcal/mol]	denaturant m value (20 °C, Urea) [kcal/mol/M]	denaturant midpoint (higher = more stable) (20 °C, Urea) [M]	unfolding free energy (20 °C, Urea) [kcal/mol]	ddG of mutation (higher = less stable) (69.5 °C, Thermal) [kcal/mol]	Tm (Thermal) [°C]	change of melting temperature, mutant - wild type (higher = more stable) (Thermal) [°C]	unfolding enthalpy (van 't Hoff) (Thermal) [kcal/mol]
R191A E232A	0.86	3.08	1.44	4.26	0.53	1.53	2.96	4.32	0.15	68.5	-1	44.6
R191A	0.41	2.63	1.59	4.71	0.32	1.7	3.1	4.53	0.34	67.3	-2.2	49.5
R191A K194A					0.16	1.33	3.21	4.69		67.5	-2	53.2

— FireProtDB (doi:10.1021/bi020461s)
